Assay results published in patent publication US7629437.

Biological target: T1, Ac-Leu-Thr-Phe-Lys-ACC
T1 chain: LTFK

B1: Cruzain (protein)
chain: APAAVDWRARGAVTAVKDQGQCGSCWAFSAIGNVECQWFLAGHPLTNLSEQMLVSCDKTDSGCSGGLMNNAFEWIVQENNGAVYTEDSYPYASGEGISPPCTTSGHTVGATITGHVELPQDEAQIAAWLAVNGPVAVAVDASSWMTYTGGVMTSCVSEQLDHGVLLVGYNDSAAVPYWIIKNSWTTQWGEEGYIRIAKGSNQCLVKEEASSAVVG
- cleavage products (HPLC and MALDI of the digest): Product fragments corresponding to cleavage between Thr-Phe were observed (data not shown)
